B1: H4H15350P2 (antibody, human IgG4, V domains shown)
VH: EVQLVESGGGLVQPGGSLRLSCAASGFTFSSFRMTWVRQAPGKGLEWVANIKQDGSEKYYVDSVKGRFTISRDNAKNSLYLQMNSLRAEDTAVYYCARGGGIAAYWGQGTLVTVSS
VL: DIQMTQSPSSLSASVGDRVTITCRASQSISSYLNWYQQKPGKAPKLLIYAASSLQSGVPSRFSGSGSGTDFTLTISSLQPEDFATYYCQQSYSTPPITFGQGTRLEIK
notes: H4H prefix: human IgG4 Fc
B2: H4H15318P (antibody, human IgG4, V domains shown)
VH: QVQLVESGGGVVQPGRSLRLSCTASGFTFGNFGIHWVRQAPGKGLEWVAVISYDGTDKFYADPVKGRFIISRDNSMNILYLQMNSLRAEDTAVYYCAKDGEMELRGYYYYYGMDVWGQGTTVTVSS
VL: DIQMTQSPSSVSASVGDRVTITCRASQGINTWLAWYQQKPGTAPKLLIFAASSLESGVPSRFSGSGFGTDFTLTISSLQSEDLATYFCQQVHSPPYTFGQGTKLEIK
notes: H4H prefix: human IgG4 Fc
B3: H4H15346P (antibody, human IgG4, V domains shown)
VH: EVQLVESGGGLVQPGGSLRLSCAASGFTFSNYAMSWVRQAPGKGLEWVSTISDTGGSTYYADSVKGRFALSRDNSRNTLYLQMNSLRAEDTAVYYCAKEGPPDYWGQGTLVTVSS
VL: EIVLTQSPATLSLSPGERATLSCRTSQSVSIYLAWYQQKPGQAPRLLIYDASKRATGIPARFSGRGSGTDFTLTISSLEPEDFAVYYCQQRSNWPLTFGQGTRLEIK
notes: H4H prefix: human IgG4 Fc
B4: H4H15323P (antibody, human IgG4, V domains shown)
VH: EVQLVESGGGLVQPGGSLRLSCAASGFTFSSYAMTWVRQAPGKGLEWVSAISGSGGSTYYTDSVKGRFTLSRDNSKNTLYLQMNSLRAEDTAVYYCAKSDYSNTIYWYYGMDVWGQGTTVTVSS
VL: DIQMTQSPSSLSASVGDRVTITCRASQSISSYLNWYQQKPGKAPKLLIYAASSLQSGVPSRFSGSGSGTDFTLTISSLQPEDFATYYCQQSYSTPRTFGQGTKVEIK
notes: H4H prefix: human IgG4 Fc
B5: H4H15345P (antibody, human IgG4, V domains shown)
VH: EVQLVESGGGLVQPGGSLRLSCAASGFTFSTYAMSWVRQAPGKGLEWVSVISGSFISTYYADSVKGRFTISRDNSKNTLYLQMTSLRAEDTAVYYCAKNSPFDYWGQGTLVTVSS
VL: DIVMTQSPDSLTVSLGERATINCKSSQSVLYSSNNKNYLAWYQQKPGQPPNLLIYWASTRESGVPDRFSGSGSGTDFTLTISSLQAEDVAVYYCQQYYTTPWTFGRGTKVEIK
notes: H4H prefix: human IgG4 Fc
B6: H4H15343P (antibody, human IgG4, V domains shown)
VH: QVQLVESGGGVVQPGRSLRLSCAASGFTFSSYGMHWVRQAPGKGLEWVAVISYAGSNKYYADSVKGRFTISRDNSKNTLYLQMNGLRAEDTAVYYCAKDPYGDYEGVLDYWGQGTLVTVSS
VL: DIQMTQSPSSLSASVGDRVTITCQASQDISNYLNWYQQKPGKAPKLLIYDASNLETGVPSRFSGSGSGTDFTFTISSLQPEDIATYYCQQYDHLPITFGQGTRLEIK
notes: H4H prefix: human IgG4 Fc
B7: H4H15319P (antibody, human IgG4, V domains shown)
VH: EVQLVESGGGVVRPGGSLRLSCAASGFTVDDYDMSWVRQTPGKGLEWISGINWNGGNTGYADSVKGRFIISRDSAKNSLFLQMNSLRAEDTALYHCWGAIGAFDIWGQGTMVTVSS
VL: DIVMTQSPLSSPVTLGQPASISCRSSQSLVHSDGGTYLSWLQQRPGQPPRLLIYKIFNRFSGVPDRFSGSGAGTDFTLRISRVEAEDVGVYYCMQTTQFPLTFGGGTKVEIK
notes: H4H prefix: human IgG4 Fc

Experiments:
[1] = target: T1, human ANGPTL8 expressed with C-terminal mouse IgG2a Fc tag (hANGPTL8-mFc; SEQ ID NO: 340) (human); test: BLI Octet, captured antigen, 100 nM mAb, 25C
T1 construct: also called Angiopoietin-like protein 8
T1 chain: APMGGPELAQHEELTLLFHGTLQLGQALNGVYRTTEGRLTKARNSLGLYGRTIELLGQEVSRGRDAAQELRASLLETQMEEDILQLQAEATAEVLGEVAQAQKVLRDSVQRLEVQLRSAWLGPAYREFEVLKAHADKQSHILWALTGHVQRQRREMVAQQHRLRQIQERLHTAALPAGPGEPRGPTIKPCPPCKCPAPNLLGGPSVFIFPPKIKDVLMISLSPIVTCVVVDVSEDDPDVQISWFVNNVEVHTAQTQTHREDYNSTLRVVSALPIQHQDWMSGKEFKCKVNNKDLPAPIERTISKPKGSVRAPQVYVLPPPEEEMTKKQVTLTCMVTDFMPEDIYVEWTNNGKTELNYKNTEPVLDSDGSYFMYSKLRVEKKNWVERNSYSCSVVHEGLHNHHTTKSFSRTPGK
Experimental: (§1) Binding of ANGPTL8 antibodies to human and monkey ANGPTL8 proteins was investigated using Bio-layer Interferometry with an Octet HTX biosensor platform (ForteBio, A Division of Pall Life Sciences). All experiments were performed at 25° C. in 10 mM HEPES pH 7.4, 150 mM NaCl, 0.05% v/v Surfactant Tween-20, and 1 mg/ml BSA with the reaction multiwell plate agitated at 1000 rpm. Approximately 1.6 nm of human ANGPTL8 produced with a C-terminal mouse IgG2a Fc tag (hANGPTL8-mFc; SEQ ID NO: 340) or cynomolgus monkey ANGPTL8 produced with a C-terminal mouse IgG2a Fc tag (MfANGPTL8-mFc; SEQ ID NO: 341) was captured onto anti-mFc (AMC) Octet biosensors by submerging the sensors into wells containing 10 μg/mL of each protein for 4 minutes. Under the same conditions a negative control protein with the same mFc tag (hLDLR-mFc) was also coupled to the AMC sensor. All four sensors, […] and one blank, were then submerged into wells containing 100 nM of different ANGPTL8 monoclonal antibodies or an isotype control for 4 minutes.

[2] = target: T2, negative control protein with the same mFc tag (hLDLR-mFc) (human; mouse, UniProt P01130 22-788, limits assumed); test: BLI Octet, captured antigen, 100 nM mAb, 25C
T2 construct: also called Irrelevant control; not shown: mouse IgG2a Fc tag (same mFc tag as hANGPTL8-mFc)
Experimental: as §1

[3] = target: T3, monkey ANGPTL8 expressed with C-terminal mouse IgG2a Fc tag (MfANGPTL8-mFc; SEQ ID NO: 341) (cynomolgus monkey); test: BLI Octet, captured antigen, 100 nM mAb, 25C
T3 construct: also called cynomolgus monkey ANGPTL8
T3 chain: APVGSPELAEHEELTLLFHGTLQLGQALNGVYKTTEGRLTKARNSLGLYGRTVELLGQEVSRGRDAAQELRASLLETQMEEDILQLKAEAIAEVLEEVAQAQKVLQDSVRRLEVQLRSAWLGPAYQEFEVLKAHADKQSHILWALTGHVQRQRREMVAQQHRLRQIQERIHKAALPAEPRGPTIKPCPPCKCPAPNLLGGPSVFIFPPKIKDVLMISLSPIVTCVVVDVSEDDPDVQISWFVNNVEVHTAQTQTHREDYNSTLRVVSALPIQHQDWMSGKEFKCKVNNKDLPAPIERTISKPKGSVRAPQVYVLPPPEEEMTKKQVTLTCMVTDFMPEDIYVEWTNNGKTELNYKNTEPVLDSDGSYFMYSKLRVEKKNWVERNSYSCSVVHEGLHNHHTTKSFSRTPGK
Experimental: as §1

[4] = target: T4, human ANGPTL8 peptide (hANGPTL8 peptide, SEQ ID NO: 337) (human); test: SPR, captured mAb, 500 nM peptide, 25C
T4 construct: also called N-terminal region ANGPTL8 peptide
T4 peptide: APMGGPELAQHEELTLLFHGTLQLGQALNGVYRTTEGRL
Experimental: (§2) The assay utilized a format where ANGPTL8 antibodies were captured on the sensor surface and peptides were injected over the antibody surface. Peptides from the N-terminal coiled-coil region of human ANGPTL3 (hANGPTL3 peptide, SEQ ID NO: 338) and human ANGPTL4 (hANGPTL4 peptide, SEQ ID NO: 339) were also included as controls. Also included was a control antibody (H4H268P from US2011/0159015A1) that binds to the ANGPTL4 peptide and a negative isotype control antibody. All binding studies were performed in 10 mM HEPES pH 7.4, 150 mM NaCl, 3 mM EDTA, and 0.05% v/v Surfactant Tween-20 (HBS-ET running buffer) at 25° C. The HCA sensor surface was derivatized via amine coupling to a monoclonal mouse anti-human Fc antibody (GE, # BR-1008-39), and to this surface was captured approximately 1000 RU of each ANGPTL8 antibody or control antibody. Peptide stock solutions were diluted in HBS-ET running buffer to 500 nM and injected over the antibody-captured surfaces for 4 minutes at a flow rate of 30 μL/minute followed by the dissociation of bound peptide in HBS-ET running buffer for 10 minutes.
(§3) Dissociative half-lives (t½) were calculated from kd as: […]

[5] = target: T5, peptide from the N-terminal coiled-coil region of human ANGPTL3 (hANGPTL3 peptide, SEQ ID NO: 338) (human); test: SPR, captured mAb, 500 nM peptide, 25C
T5 construct: also called hANGPTL3 shift peptide
T5 peptide: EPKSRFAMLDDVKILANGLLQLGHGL
Experimental: as §2, §3

[6] = target: T6, peptide from the N-terminal coiled-coil region of human ANGPTL4 (hANGPTL4 peptide, SEQ ID NO: 339) (human); test: SPR, captured mAb, 500 nM peptide, 25C
T6 peptide: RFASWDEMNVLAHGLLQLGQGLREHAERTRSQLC
Experimental: as §2, §3

[7] = target: T7, anti-mFc (AMC) Octet biosensor, blank; test: BLI Octet, blank AMC sensor, 100 nM mAb, 25C
T7 construct: Sensor without captured protein, used as blank; also called Blank AMC Sensor
Experimental: as §1

T2 sequence (P01130 22-788 limits assumed): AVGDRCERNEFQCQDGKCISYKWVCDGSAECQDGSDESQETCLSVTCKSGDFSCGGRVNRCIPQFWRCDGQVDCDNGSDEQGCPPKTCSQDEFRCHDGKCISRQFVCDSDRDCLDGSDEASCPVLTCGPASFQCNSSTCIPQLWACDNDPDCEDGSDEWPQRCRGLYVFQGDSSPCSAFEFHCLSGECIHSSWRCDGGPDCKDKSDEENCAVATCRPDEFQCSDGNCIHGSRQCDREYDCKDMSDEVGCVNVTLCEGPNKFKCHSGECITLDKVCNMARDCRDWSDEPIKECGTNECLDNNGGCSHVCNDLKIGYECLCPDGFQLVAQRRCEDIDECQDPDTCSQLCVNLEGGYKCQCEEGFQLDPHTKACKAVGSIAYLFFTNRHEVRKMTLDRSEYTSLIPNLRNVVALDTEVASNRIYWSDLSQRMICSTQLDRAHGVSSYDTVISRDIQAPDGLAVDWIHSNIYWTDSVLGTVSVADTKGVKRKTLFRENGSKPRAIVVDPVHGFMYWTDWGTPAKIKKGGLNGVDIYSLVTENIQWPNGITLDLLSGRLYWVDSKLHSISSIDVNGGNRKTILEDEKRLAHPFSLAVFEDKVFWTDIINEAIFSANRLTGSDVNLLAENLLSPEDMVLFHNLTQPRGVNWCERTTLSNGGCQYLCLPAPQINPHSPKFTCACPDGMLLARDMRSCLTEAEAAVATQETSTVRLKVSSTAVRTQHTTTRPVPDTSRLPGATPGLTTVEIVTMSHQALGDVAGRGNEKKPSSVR

Binder | mAb Binding Response (nm) [1] | mAb Binding Response (nm) [2] | mAb Binding Response (nm) [3] | 500 nM hANGPTL8 peptide Bound (RU) [4] | binding result [4] | 500 nM hANGPTL3 peptide Bound (RU) [5] | binding result [5] | 500 nM hAngPTL4 peptide Bound (RU) [6] | binding result [6] | mAb Binding Response (nm) [7] | koff [4] | t½ [4]
B1 | 0.17 nm | 0 nm | 0.2 nm | 0 RU | no binding (tested: <9 RU at 500 nM peptide) | 0 RU | no binding (tested: <9 RU at 500 nM peptide) | 0 RU | no binding (tested: <9 RU at 500 nM peptide) | -0.01 nm |  | 
B2 | 0.19 nm | 0.01 nm | 0.2 nm | 0 RU | no binding (tested: <9 RU at 500 nM peptide) | 0 RU | no binding (tested: <9 RU at 500 nM peptide) | 0 RU | no binding (tested: <9 RU at 500 nM peptide) | 0.01 nm |  | 
B3 | 0.07 nm | 0 nm | 0.01 nm | 0 RU | no binding (tested: <9 RU at 500 nM peptide) | 0 RU | no binding (tested: <9 RU at 500 nM peptide) | 0 RU | no binding (tested: <9 RU at 500 nM peptide) | -0.01 nm |  | 
B4 | 0.18 nm | 0 nm | 0.15 nm | 0 RU | no binding (tested: <9 RU at 500 nM peptide) | 0 RU | no binding (tested: <9 RU at 500 nM peptide) | 0 RU | no binding (tested: <9 RU at 500 nM peptide) | 0 nm |  | 
B5 | 0.25 nm | 0 nm | 0.31 nm | 37 RU |  | 0 RU | no binding (tested: <9 RU at 500 nM peptide) | 0 RU | no binding (tested: <9 RU at 500 nM peptide) | 0.01 nm | 2.03e-05 s⁻¹ | 9.5 h
B6 | 0.17 nm | -0.01 nm | 0.2 nm | 0 RU | no binding (tested: <9 RU at 500 nM peptide) | 0 RU | no binding (tested: <9 RU at 500 nM peptide) | 0 RU | no binding (tested: <9 RU at 500 nM peptide) | 0.01 nm |  | 
B7 | 0.22 nm | -0.01 nm | 0.26 nm | 0 RU | no binding (tested: <9 RU at 500 nM peptide) | 0 RU | no binding (tested: <9 RU at 500 nM peptide) | 0 RU | no binding (tested: <9 RU at 500 nM peptide) | 0 nm |  | 
